The results in this text go back to article PMC2728795.

The target in the assay is F-actin (freshly polymerized actin) (UniProt P68135). The experiment in a line: co-sedimentation.

On to “GST(541–605,Δ25)PRG (from UniProt O15085 541-605) (domain or fragment)”, for which the percent bound at 5 µM F-actin came to 10%.
